# Experimental data as given in IntAct's records for PubMed 21645854.
# B1: FAS-associated factor 1 (Homo sapiens), Q9UNN5-1 (parent)
# chain: MASNMDREMILADFQACTGIENIDEAITLLEQNNWDLVAAINGVIPQENGILQSEYGGETIPGPAFNPASHPASAPTSSSSSAFRPVMPSRQIVERQPRMLDFRVEYRDRNVDVVLEDTCTVGEIKQILENELQIPVSKMLLKGWKTGDVEDSTVLKSLHLPKNNSLYVLTPDLPPPSSSSHAGALQESLNQNFMLIITHREVQREYNLNFSGSSTIQEVKRNVYDLTSIPVRHQLWEGWPTSATDDSMCLAESGLSYPCHRLTVGRRSSPAQTREQSEEQITDVHMVSDSDGDDFEDATEFGVDDGEVFGMASSALRKSPMMPENAENEGDALLQFTAEFSSRYGDCHPVFFIGSLEAAFQEAFYVKARDRKLLAIYLHHDESVLTNVFCSQMLCAESIVSYLSQNFITWAWDLTKDSNRARFLTMCNRHFGSVVAQTIRTQKTDQFPLFLIIMGKRSSNEVLNVIQGNTTVDELMMRLMAAMEIFTAQQQEDIKDEDEREARENVKREQDEAYRLSLEADRAKREAHEREMAEQFRLEQIRKEQEEEREAIRLSLEQALPPEPKEENAEPVSKLRIRTPSGEFLERRFLASNKLQIVFDFVASKGFPWDEYKLLSTFPRRDVTQLDPNKSLLEVKLFPQETLFLEAKE
# Variants of: B1
# Settings: with tera_human VCP
row,Variant,effect of a mutation on the interaction
1,R579A,decreasing interaction
2,P620N,decreasing interaction
3,R621A,decreasing interaction
4,P640N,decreasing interaction
5,F619A,decreasing interaction
